# Test results reported in patent US20060078875A1, “Genetic selection of small molecule modulators of protein-protein interactions” (The Penn State Research Foundation, priority 2004, published 2006).
# Ends that are not written are not given here.
# Assays:
# [1] = target: T1, ribonucleotide reductase large subunit (mR1) (Mus musculus, UniProt P07742); assay: Immobilized peptide binding/competition ELISA with mR1; set-up: species or system murine; details: P8 immobilized on maleimide plates
# T1 construct: made in house; host or cells: E. coli BL21(λDE3) Rosetta, pET28a-MR1
# T1 sequence (P07742 1-792): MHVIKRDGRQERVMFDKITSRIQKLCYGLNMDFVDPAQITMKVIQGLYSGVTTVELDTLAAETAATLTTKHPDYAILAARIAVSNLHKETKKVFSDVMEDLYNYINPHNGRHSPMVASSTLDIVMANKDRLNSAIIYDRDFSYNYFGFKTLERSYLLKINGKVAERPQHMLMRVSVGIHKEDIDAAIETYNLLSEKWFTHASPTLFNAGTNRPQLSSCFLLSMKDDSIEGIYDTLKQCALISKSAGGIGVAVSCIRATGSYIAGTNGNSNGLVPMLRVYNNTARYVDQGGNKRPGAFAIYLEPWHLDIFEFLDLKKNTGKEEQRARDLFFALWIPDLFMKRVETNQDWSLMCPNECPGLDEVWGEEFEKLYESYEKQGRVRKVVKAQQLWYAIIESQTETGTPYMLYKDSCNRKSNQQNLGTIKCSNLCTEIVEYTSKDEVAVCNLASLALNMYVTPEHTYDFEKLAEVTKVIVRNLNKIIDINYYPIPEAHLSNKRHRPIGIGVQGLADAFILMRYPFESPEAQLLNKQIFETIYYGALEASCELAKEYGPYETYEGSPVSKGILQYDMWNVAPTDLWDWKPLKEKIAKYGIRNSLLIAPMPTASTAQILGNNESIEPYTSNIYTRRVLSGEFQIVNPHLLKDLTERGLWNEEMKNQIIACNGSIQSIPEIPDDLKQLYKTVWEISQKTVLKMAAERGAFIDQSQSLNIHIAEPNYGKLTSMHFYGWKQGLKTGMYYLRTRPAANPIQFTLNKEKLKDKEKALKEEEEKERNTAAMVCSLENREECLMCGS
# Experimental: (§1) FIG. 8B provides the results of an immobilized P8 ELISA.
# (§2) Two variations of solid phase binding assays were used for analyzing the binding of peptide inhibitors to ribonucleotide reductase subunits: i) protein competition ELISA where peptides were competing with mR1 for binding to immobilized mR2, ii) binding and competition ELISA with covalently immobilized ligands. In general, the solid phase assays were performed in microtiter plates (MaxiSorp, Nunc) or strip units (Reacti-Bind™ Maleimide Activated Clear Strip Plates, Pierce) involving continuous agitation in Junior Orbit Shaker (Lab-line Instruments) at medium speed during all of the incubation steps. Sample volumes were 100 μL, unless specified otherwise. Following coating, blocking step was conducted by incubating pre-loaded wells with 5% bovine serum albumin in PBS for 1 h at room temperature. Wash procedures between any two successive incubations involved three washes with 200 μL of 0.5% Tween-20 in PBS (PBST), with the second wash involving a 5 min incubation. Detection of His-tagged proteins was performed with Ni·NTA-HRP conjugate (Qiagen) according to the manufacturer instructions.
# (§3) Peptides (200 nmol per well) in 10% DMF/50 mM Tris·HCl (pH 7.5) with 1 mM TCEP were reacted for 2 h at room temperature with maleimide-derivatized polystyrene wells. The unreacted sites were blocked by incubating wells with 5 μM cysteine in 50 mM Tris·HCl (pH 7.5) for 30 min. Following washing and blocking steps, the wells were incubated with His-tagged mR1 or mR2 in the presence or absence of inhibitors. The retained protein was detected via Ni·NTA-HRP conjugate.
# (§4) To determine the mechanism of action of the four identified sequences an alternative assay format was devised (FIG. 8A), where a peptide with a residual activity in its immobilized form can serve as a specific ligand for receptor capture in both binding and competition ELISA. The success of such an assay relies on both efficient peptide immobilization strategy and sufficient level of affinity, uncompromised by this display strategy. The peptide immobilization becomes feasible through implementation of a cysteine, a nucleophile used in splicing, as a universal chemoselective handle allowing covalent attachment strategy through a suitable electrophile. Chemoselective attachment of such peptides on appropriately derivatized surfaces should both display the small molecules for detection with a suitable protein receptor and allow binding site competition analysis, not unlike in a traditional immunosorbent format.
# [2] = target: T2, ribonucleotide reductase (Mus musculus, UniProt P07742+P11157); assay: RTHS β-galactosidase (lacZ) assay, ribonucleotide reductase fusion in strain SNS126; type: cell-based, murine; details: for Effect on the lacZ reporter upon arabinose induction: arabinose induction of peptide expression; for Effect on the lacZ reporter upon arabinose induction / lacZ repression relief: 100 μM IPTG; for lacZ repression relief: background level of peptide expression
# T2 construct: expressed in transfected cells; host or cells: E. coli strain SNS126 (integrated via pAH68)
# T2 sequence (P07742 1-792): T1 sequence (P07742 1-792)
# T2 sequence (P11157 1-390): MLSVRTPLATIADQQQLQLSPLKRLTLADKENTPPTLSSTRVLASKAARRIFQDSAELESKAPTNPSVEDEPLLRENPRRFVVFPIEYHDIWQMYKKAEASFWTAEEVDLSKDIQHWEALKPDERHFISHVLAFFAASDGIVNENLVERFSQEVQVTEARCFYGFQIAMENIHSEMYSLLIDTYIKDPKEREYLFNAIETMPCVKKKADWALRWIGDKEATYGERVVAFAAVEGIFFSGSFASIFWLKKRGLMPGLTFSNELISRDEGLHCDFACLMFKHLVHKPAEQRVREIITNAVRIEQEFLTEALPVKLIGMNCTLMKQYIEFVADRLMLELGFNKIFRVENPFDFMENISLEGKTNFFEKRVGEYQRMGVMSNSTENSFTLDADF
# Source text: FIG. 4 has two graphs (A and B) of β-galactosidase assays showing the effect of linear peptide inhibitors on the oligomeric state of HIV-1 protease and ribonucleotide reductase.
# Positive (unrepressed strain) and negative (SICLOPPS control plasmid) controls are provided as reference points. […] FIG. 7C is a graph of competition ELISA results that compare the binding affinity of the four linear peptides with P8 control. FIG. 7D illustrates an exemplary solid phase synthesis of cyclic peptides. First, an activated disulfide resin is prepared through the protection of the thiol group of 3-mercaptopropionic acid, followed by coupling to an amino-PEGA resin. Next, a linear peptide is attached via a cysteine residue and cyclized with 1-ethyl-3-(3′-dimethylaminopropyl)carbodiimide (EDC) and 1-hydroxy-7-azabenzotriazole (HOAt) in DMF. Finally, reductive cleavage with tris-2-carboxyethylphosphine (TCEP) releases the cyclized peptide.
# pTHCP30. […] ribonucleotide reductase subunit R1 was PCR amplified from a Bacuolovirus expression plasmid [Caras et al. (1985) J. Biol. Chem. 260:7015-7022] and cloned into SalI and SacI sites on pTHCP14, and subunit R2 was PCR amplified from pET3a-R2 and cloned onto pTHCP14-R1 plasmid at XhoI and KpnI sites [Mann et al. (1991) Biochemistry 30:1939-1947].
# Overlapping oligonucleotides encoding […] (methionine plus eight R2 subunit C-terminal residues) (SEQ ID:15) were cloned into NcoI and XbaI sites on arabinose expression plasmid pAR [Perez-Perez et al. (1995) Gene 158:141-142].
# Towards this goal, both enzyme complexes were probed with known linear peptidic inhibitors. These peptides are a C-terminal hexapeptide (FIG. 4A, pHIV16) for HIV protease that inhibits the essential β-sheet interactions [Schramm al. (1996) Antiviral Res. 30:155-170], and a heptapeptide for ribonucleotide reductase (pTHCP35, FIG. 4B) that competes with binding between subunits mR1 and mR2 [Yang et al. (1990) FEBS Lett. 272:61-64].
# To address non-specific effects of selectants on host growth rates, three of the selective peptides (RR93, RR127, RR130) and the less discriminating RR133 were subjected to quantitative expression studies using the lacZ reporter of the RTHS. […] These studies necessitated in vitro analysis to decipher the inhibition mechanism of these four selectants.
# [3] = target: T3, ribonucleotide reductase small subunit (mR2) (Mus musculus, UniProt P11157); assay: Immobilized c-RR130 binding/competition ELISA with mR2; set-up: species or system murine; details: data not shown
# T3 construct: made in house; host or cells: E. coli BL21(λDE3), pET28a-MR2
# T3 sequence (P11157 1-390): T2 sequence (P11157 1-390)
# Experimental: as §1, §2, §3, §4
# [4] = target: T4, ATIC homodimer (Gallus gallus, UniProt P31335); assay: ATIC RTHS ranking by spotting serial dilutions on selective media; type: cell-based; details: cyclic peptides in order of biological activity (1 = most active)
# T4 construct: expressed in transfected cells; host or cells: E. coli RTHS strain with the ATIC fusion integrated on the chromosome
# T4 sequence (P31335 1-593): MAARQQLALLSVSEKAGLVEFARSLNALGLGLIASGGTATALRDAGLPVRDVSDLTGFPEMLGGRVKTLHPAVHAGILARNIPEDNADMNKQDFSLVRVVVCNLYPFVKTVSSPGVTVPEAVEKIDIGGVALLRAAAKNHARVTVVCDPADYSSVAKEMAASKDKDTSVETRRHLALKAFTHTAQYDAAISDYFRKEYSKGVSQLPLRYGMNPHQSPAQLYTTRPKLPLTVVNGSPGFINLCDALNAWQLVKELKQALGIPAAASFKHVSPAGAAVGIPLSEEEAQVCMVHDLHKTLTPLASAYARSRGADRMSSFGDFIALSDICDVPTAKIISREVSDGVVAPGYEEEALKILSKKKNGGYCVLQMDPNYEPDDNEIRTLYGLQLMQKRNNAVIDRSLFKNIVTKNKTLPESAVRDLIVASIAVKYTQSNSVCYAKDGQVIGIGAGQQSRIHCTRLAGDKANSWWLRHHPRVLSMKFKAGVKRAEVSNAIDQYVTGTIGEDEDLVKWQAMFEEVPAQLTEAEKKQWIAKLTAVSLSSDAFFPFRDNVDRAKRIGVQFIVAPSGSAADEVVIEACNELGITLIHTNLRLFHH
# Experimental: ATIC was cloned as a fusion with the bacteriophage 434 repressor DNA binding domain (into pTHCP16, FIG. 1B) such that expression of the repressor-ATIC fusion placed under control of an isopropyl β-D-thiogalactoside (IPTG) inducible promoter. […] In order to improve selection conditions, a new RTHS strain was constructed by integrating the ATIC fusion onto the chromosome. The level of IPTG giving optimal repression was determined to be 50 μM by β-galactosidase assays.
# The first SICLOPPS library transformed into the selection strain encoded a hexapeptide with five random residues and a cysteine nucleophile. Approximately 10^7 transformants were plated onto histidine-free minimal media supplemented with arabinose, (inducer for SICLOPPS) 3-amino-1,2,4-triazole (3-AT, competitive inhibitor of HIS3 product) and kanamycin at a density of 10^6 per plate (100×15 mm). The plates were incubated until colonies were readily visible (approximately one in 10^5). A second library encoding an octapeptide with five random residues and an invariable SGW motif was also tested (not shown). Around 200 colonies were picked and screened for arabinose dependent growth advantage and IPTG dependent inhibition of growth to eliminate false positives. The expected phenotype was further confirmed by isolating and retransforming the selected SICLOPPS plasmids into the selection strain. The 14 remaining cyclic peptides were then ranked for activity by spotting serial dilutions of the corresponding cells onto selective media, allowing the conferred growth advantage to be compared at each dilution level.
# SICLOPPS libraries were transformed into E. coli strains containing integrated reporter and repressor constructs. Transformants were washed with minimal media A and plated on minimal media A supplemented with 13 μM L-(+)-arabinose, 2.5 mM 3-amino-1,2,4-triazole, 25 μM kanamycin and 50 μM IPTG. After incubation at 37° C. for 3-4 days, surviving colonies were restreaked onto the same media with and without arabinose. Plasmids from selected strains whose growth depended on the presence of arabinose were retransformed into the original selection strain and checked for phenotype retention. The variable insert regions on SICLOPPS plasmids were PCR-amplified, and their DNA sequence determined.
# [5] = target: T5, avian ATIC (AICAR Tfase) (Gallus gallus, UniProt P31335); assay: AICAR Tfase assay
# T5 sequence (P31335 1-593): T4 sequence (P31335 1-593)
# Experimental: All assays were performed using a Varian Cary 100 Spectrometer. All reaction mixtures were 500 μl in volume and carried out in 1 cm pathlength quartz cuvettes at 25° C. The enzyme used in all of the inhibition studies was avian ATIC, fused to a N-terminal 6× histidine tag to facilitate purification. […] The peptides were dissolved in DMSO to a final concentration of 2.5 mM.
# 84 nM of ATIC, 50 μM of 10-f-THF and various quantities of inhibitor were mixed in the assay buffer (32.5 mM Tris-HCl, 25 mM KCl, pH 7.4). The mixture was incubated at 25° C. for 2 min before initiating the reaction by addition of 20 μM AICAR. The reaction was monitored by measuring the increase in absorbance due to formation of tetrahydrofolate at 298 nm.
# The peptides were assumed to be competing with f-10-THF, which binds to ATIC and stabilizes its dimerization.
substance,measurement,setting,value
"GVRFF (cyclic, SICLOPPS-expressed; Ribonucleotide reductase inhibitor peptide) [RR127]",Disruption of / competition with immobilized P8·mR1 complex,[1],none
same,Effect on the lacZ reporter upon arabinose induction,[2],further enhanced
same,lacZ repression relief,[2],observable repression relief
same,Competition with the c-RR130·mR2 complex,[3],competed
"HRYVF (cyclic, SICLOPPS-expressed; Ribonucleotide reductase inhibitor peptide) [RR133]",Disruption of / competition with immobilized P8·mR1 complex,[1],none
same,Effect on the lacZ reporter upon arabinose induction,[2],further enhanced
same,lacZ repression relief,[2],observable repression relief
same,Competition with the c-RR130·mR2 complex,[3],competed
M L L I V C (MLLIVC) [c-25],Activity Rank,[4],3
"MSFTLDADF [pTHCP35, reference compound]",Repression of the lacZ reporter,[2]; peptide co-expressed with ribonucleotide reductase fusion,relieved repression
P V L L L C (PVLLLC) [c-26],Activity Rank,[4],3
"R F F I C C (RFFICC; also: cyclic peptide, ring type not given here) [c-4]",Activity Rank,[4],2
R I L Q L C (RILQLC) [c-8],Activity Rank,[4],2
R I L V L C (RILVLC) [c-5],Activity Rank,[4],3
"RYFNVC [l-1a, RYFNVC]",Ki,[5],142 ± 22.5 µM
RYYNV (cyclo(RYYNV); not fully specified) [RR130],Disruption of / competition with immobilized P8·mR1 complex,[1],none
same,Effect on the lacZ reporter upon arabinose induction,[2],arabinose-dependent repression
same,lacZ repression relief,[2],observable repression relief
same,Competition with the c-RR130·mR2 complex,[3],competed
S M M V L C (SMMVLC) [c-15],Activity Rank,[4],3
T V L M F C (TVLMFC) [c-6],Activity Rank,[4],3
WMFLNVSG [l-151],Ki,[5],173 ± 28.4 µM
YTWSY (cyclo(YTWSY); not fully specified) [RR93],Effect on the lacZ reporter upon arabinose induction,[2],further enhanced
same,lacZ repression relief,[2],observable repression relief
